Laboratory results published in PMC4109681 (Molecular cell, 2013).

B1: ^15N-Ubc7p (from pET3a-GB1-His6-Thrombin-Ubc7p) (enzyme, Saccharomyces cerevisiae, UniProt Q02159 1-165, looked up)
chain: MSKTAQKRLLKELQQLIKDSPPGIVAGPKSENNIFIWDCLIQGPPDTPYADGVFNAKLEFPKDYPLSPPKLTFTPSILHPNIYPNGEVCISILHSPGDDPNMYELAEERWSPVQSVEKILLSVMSMLSEPNIESGANIDACILWRDNRPEFERQVKLSILKSLGF
modifications: 15N-labelled
B2: Ubc7p:U7BR complex (for NMR titration) (complex, Saccharomyces cerevisiae)
chain 1: MSKTAQKRLLKELQQLIKDSPPGIVAGPKSENNIFIWDCLIQGPPDTPYADGVFNAKLEFPKDYPLSPPKLTFTPSILHPNIYPNGEVCISILHSPGDDPNMYELAEERWSPVQSVEKILLSVMSMLSEPNIESGANIDACILWRDNRPEFERQVKLSILKSLGF
chain 2: LLDKFHVDLNEDMSNLSFKDLDIEERKRLLVWQARKNLETKLQSDKDLQSLLT
modifications: 15N-labelled

Experiments:
[1] = molecular target: GST-Cue1p^151-203 U7BR^m4 (Saccharomyces cerevisiae) (UniProt P38428); assay: pull-down
[2] = molecular target: T1, purified Hrd1p^321-551, containing its RING finger domain (Saccharomyces cerevisiae, UniProt Q08109 321-551); assay: NMR titration
T1 sequence (looked up): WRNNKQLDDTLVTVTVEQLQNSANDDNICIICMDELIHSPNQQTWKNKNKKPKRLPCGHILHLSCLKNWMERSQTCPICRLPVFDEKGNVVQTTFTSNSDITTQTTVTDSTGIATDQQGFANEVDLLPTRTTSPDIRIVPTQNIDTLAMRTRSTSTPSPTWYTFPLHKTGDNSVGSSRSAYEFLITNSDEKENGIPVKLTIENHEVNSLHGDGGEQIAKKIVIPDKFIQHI

^15N-Ubc7p (from …) = molecular target: B1; assay: NMR titration
[3] = molecular target: B2; assay: NMR titration

in vitro transcribed and translated ^35S-labeled Ubc7p (from UniProt Q02159 1-165) (enzyme)
loss of binding against wild-type [1]: 40%

B1
Kd [2]: 107 µM

B2
Kd [2]: 13.4 µM

B3: purified Doa10p^1-112 RING fragment (domain or fragment, Saccharomyces cerevisiae, UniProt P40318 1-112, looked up)
chain: MDVDSDVNVSRLRDELHKVANEETDTATFNDDAPSGATCRICRGEATEDNPLFHPCKCRGSIKYMHESCLLEWVASKNIDISKPGADVKCDICHYPIQFKTIYAENMPEKIP
binding result (^15N-Ubc7p (from …)): binds | binding result [3]: binds
